Measurements as given in patent US20040253222A1.

Target: complement receptor type 3 (CR3), heterodimer of CD11b and CD18 (human) (UniProt P11215)
Assay: cell-based or functional assay

Substance | invasion inhibition of endo- and ectocervical cells (gentamicin-resistance assay) [%] | invasion inhibition, ectocervical cells (gentamicin-resistance assay) [%] | invasion inhibition, endocervical cells (gentamicin-resistance assay) [%]
IB4 anti-CD18 antibody | > 93 |  | 
Bear1 anti-CD11b antibody (Immunotech) | > 93 |  | 
H5A4 anti-CD11b monoclonal antibody (Developmental Studies Hybridoma Bank) | > 93 | 100 | 99.9
